Experimental data published in patent US20230349919A1 (Regeneron, published 2023).

Key:
[1] = biological target: T1, Der p 2 (house dust mite, UniProt P49278 18-146); assay: barcoded antigen sequencing of single IgE PCs with trapped IgE
T1 construct: Also used oligonucleotide-barcoded for cell staining
T1 sequence (looked up): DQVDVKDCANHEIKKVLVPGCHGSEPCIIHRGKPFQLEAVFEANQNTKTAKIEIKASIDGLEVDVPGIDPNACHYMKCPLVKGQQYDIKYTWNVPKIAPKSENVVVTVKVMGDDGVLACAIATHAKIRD

[2] = biological target: T2, Der p 1 (house dust mite, UniProt P08176 99-320); assay: as above
T2 construct: Also used oligonucleotide-barcoded for cell staining; also called natural Der p 1
T2 sequence (looked up): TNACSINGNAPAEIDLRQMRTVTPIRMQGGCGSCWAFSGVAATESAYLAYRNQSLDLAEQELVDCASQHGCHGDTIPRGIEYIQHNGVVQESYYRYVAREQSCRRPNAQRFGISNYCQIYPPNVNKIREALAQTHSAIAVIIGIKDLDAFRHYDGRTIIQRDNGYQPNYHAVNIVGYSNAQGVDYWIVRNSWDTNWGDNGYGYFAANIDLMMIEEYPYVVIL

[3] = biological target: T3, Der f 1 (house dust mite, UniProt P16311 99-321); assay: as above
T3 construct: Also used oligonucleotide-barcoded for cell staining
T3 sequence (looked up): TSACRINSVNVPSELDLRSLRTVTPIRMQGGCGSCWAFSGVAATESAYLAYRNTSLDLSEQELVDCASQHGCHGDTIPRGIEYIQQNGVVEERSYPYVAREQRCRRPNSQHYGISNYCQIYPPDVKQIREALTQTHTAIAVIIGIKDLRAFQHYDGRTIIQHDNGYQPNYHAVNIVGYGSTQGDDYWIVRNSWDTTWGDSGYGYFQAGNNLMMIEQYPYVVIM

[4] = biological target: T1, Der p 2; assay: barcoded antigen sequencing of single IgE PCs with trapped IgE [cont.]
Excerpt: (§1) The barcoded antigen library was mapped by the CellRanger software to a custom short-read reference that contained the DNA tag sequences of the four barcoded antigens, namely, Der p 1, Der p 2, Der f 1 and Ole e 1. These tag sequences were quantified across all cells and were normalized by taking the centered log-ratio (CLR) per barcoded antigen across each sample capture. In addition, background antigen signal for each barcoded antigen was removed by DSB (Denoised and Scaled by Background). Both the CLR and the DSB normalized values were used to quantify the target antigen signals, namely, those for Der p 1, Der p 2 and Der f 1, against the control signal, namely, that for Ole e 1.

[5] = biological target: T2, Der p 1; assay: as above
Excerpt: as §1

[6] = biological target: T3, Der f 1; assay: as above
Excerpt: as §1

[7] = biological target: T1, Der p 2; assay: antigen specificity score against Ole e 1 from barcode counts of single IgE PCs [cont.]
Protocol: (§2) Antigen specificity score (AgSS) for IgG were calculated by subtracting the quantile of hIL-6Rα barcoded UMI counts multiplied by a penalty factor (x) from the quantile of hIL-4Rα barcoded UMI counts, AgSS=Q_hIL-4Rα-Q_hIL-6Rα^x. AgSS for IgE were calculated with a similar formula for mouse and human single cell data. For IgE scores the target antigens were either Der p1, Der p2 or Der f1 and the control was always Ole e1.
(§3) Following processing of the three single-cell libraries, the gene expression and V(D)J region sequencing data were used to subset PCs with a valid IgE constant region and detectable expression of IgE and CD79a but lacking the expression of Ms4a1 and CD19 typically found in non-PC B cells. IgE-expressing PCs were then assessed for differential expression against additional IgA, IgG, and IgM plasma cell isotypes to further characterize the unique transcriptional signature of IgE-secreting PCs. IgE-secreting PCs were then assessed for antigen specificity by comparing the normalized levels of the target antigens, namely, Der p 1, Der p 2, or Der f 1, against the normalized level of the control antigen Ole e 1. This was performed by calculating an empirical score for each target antigen and subtracting the […] with a penalty factor. The formula used to do is set forth below: […]

[8] = biological target: T2, Der p 1; assay: as above
Protocol: as §2, §3

[9] = biological target: T3, Der f 1; assay: as above
Protocol: as §2, §3

[10] = biological target: T1, Der p 2; assay: barcoded-antigen count on source cell
[11] = biological target: T4, Ole e 1 (olive, UniProt P19963 1-145); assay: barcoded-antigen count on source cell
T4 construct: Also used oligonucleotide-barcoded for cell staining; also called olive allergen; negative control allergen
T4 sequence (looked up): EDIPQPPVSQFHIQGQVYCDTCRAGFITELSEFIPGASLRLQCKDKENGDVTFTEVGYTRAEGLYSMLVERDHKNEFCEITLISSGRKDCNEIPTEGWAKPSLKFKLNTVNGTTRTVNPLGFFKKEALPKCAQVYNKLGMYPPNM

[12] = biological target: T3, Der f 1; assay: barcoded-antigen count on source cell
[13] = biological target: T1, Der p 2; assay: barcode rank score against control Ole e 1
[14] = biological target: T3, Der f 1; assay: barcode rank score against control Ole e 1
[15] = biological target: T1, Der p 2; assay: ELISA, coated Der p2
Protocol: After selecting allergen-specific antibodies, relative binding to Der p 1, Der p 2, and Der f 1 were quantified by ELISA. […] Specifically, binding microtiter plates were coated with 100 μl of 2 μg/mL of natural Der p 1, Der p 2, Der f 1, and Ole e 1 in PBS overnight at 4′C. IgE antibodies were prepared at a concentration of 1 μg/mL and serially diluted three-fold in PBS with 0.5% w/v BSA. After washing with 0.05% v/v Tween® 20 in PBS and blocking in PBS with 0.5% w/v BSA, 100 μl of the diluted IgE antibodies were transferred to the plates and incubated for one hour at ambient temperature. Subsequently, 100 μL of anti-mouse IgE antibody conjugated to horse-radish peroxidase (HRP) diluted at 1:5000 was added. The plates were then incubated for one hour at ambient temperature, and washed in 0.05% v/v/Tween® 20 in PBS. Subsequently, the HRP substrate 3,3′,5,5′-tetramethylbenzidine (TMB) was added. The reaction was stopped (with 100 μL of sulfuric acid 2.0 N) and optical density values determined using a plate reader at 450 nm.

[16] = biological target: T1, Der p 2; assay: centered log-ratio of barcode count
Excerpt: as §1

[17] = biological target: T4, Ole e 1; assay: centered log-ratio of barcode count
Excerpt: as §1

[18] = biological target: T3, Der f 1; assay: centered log-ratio of barcode count
Excerpt: as §1

[19] = biological target: T5, human IL-4 Receptor α (hIL-4Rα) ectodomain (Example 17) (human, UniProt P24394 26-232, AlexaFluor 647 label, or biotin bound to PE-labeled streptavidin tetramer); assay: Biacore at +25°C
T5 construct: extracellular domain; Used as AF647-labelled monomer (5 nM) and as biotinylated ectodomain on SA-PE tetramer; also called hIL-4Rα-AlexaFluor647 (monomeric); hIL-4Rα-biotin-StAv-PE (tetrameric)

[20] = biological target: T5, human IL-4 Receptor α (hIL-4Rα) …; assay: method not stated

B1: Candidate ID 21 (antibody, V domains shown)
VH: QVQLQQSGPELVKPGASVKISCKAPGNAFSYSWMNWVKQRPGKGLEWVGRIYPGDGDTNYNGKFMGKATLTADKSSNTAYIQLSSLTSEDSAVYFCARSGGGTLYWYFDVWGTGTTVTVSS
VL: DIVMTQSPSSLALSVGQKVTMNCRSSQSLLNSFNQKNYLAWFQQKPGQSPRLLIYFASTRESGVPDRFIGSGSGTDFTLTISSVQAEDLADYFCQQHYNTPLTFGAGTTLELK
notes: IgE PCs LN
In the case of B1, the “Raw Antigen Barcode Count” value [1] is reported as 215, the “Raw Antigen Barcode Count” value [2] is reported as 2 and the “Raw Antigen Barcode Count” value [3] is reported as 1. The “Normalized Barcode Count” value [4] was 4.01, the “Normalized Barcode Count” value [5] was -0.398 and the “Normalized Barcode Count” value [6] was -0.795. The “Antigen Score” value [7] was 0.412, the “Antigen Score” value [8] was -0.245 and the “Antigen Score” value [9] was -0.386.

B2: IgE mAb 21_2 (antibody, V domains shown)
VH: QVQLQQSGPELVKPGASVKISCKAPGNAFSYSWMNWVKQRPGKGLEWVGRIYPGDGDTNYNGKFMGKATLTADKSSNTAYIQLSSLTSEDSAVYFCARSGGGTLYWYFDVWGTGTTVTVSS
VL: DIVMTQSPSSLALSVGQKVTMNCRSSQSLLNSFNQKNYLAWFQQKPGQSPRLLIYFASTRESGVPDRFIGSGSGTDFTLTISSVQAEDLADYFCQQHYNTPLTFGAGTTLELK
notes: IgE (IGHE, IGKC) from HDM-exposed mouse, LymphNode
Work on B2 yielded a Derp2_ab_raw [10] of 215 counts, an Olee1_ab_raw [11] of 4 counts and a Derf1_ab_raw [12] of 1 counts. The Derp2_ab_rank [13] was 0.412, the Derf1_ab_rank [14] was -0.386 and the “EC50 (read off the curve)” value [15] was roughly 0.2 nM. The Derp2_ab_clr [16] was 4.01, the Olee1_ab_clr [17] was 0.826 and the Derf1_ab_clr [18] was -0.795.

B3: IgE mAb 1_2 (antibody, V domains shown)
VH: QIQLVQSGPELKKPGETVKISCKASGYTFTTYGMSWVKQAPGKGLKWMGWINTYSGVPTYADDFKGRFVFSLETSASTAYLQINNLKNEDTATYFCARAYYYGSSYLIWYFDVWGTGTTVTVSS
VL: NIVLTQSPASLAVSLGQRATISCRASESVDSYGNSFMHWYQQKPGQPPKLLIYLASNLESGVPARFSGSGSRTDFTLTIDPVEADDAATYYCQQNNEDPYTFGGGTKLEIK
notes: IgE (IGHE, IGKC) from HDM-exposed mouse, BoneMarrow
B3 showed a Derp2_ab_raw [10] of 60 counts, an Olee1_ab_raw [11] of 0 counts and a Derf1_ab_raw [12] of 37 counts. For the same binder, the Derp2_ab_rank [13] was 1, the Derf1_ab_rank [14] was 0.982 and the Derp2_ab_clr [16] was 1.65. The Olee1_ab_clr [17] was -1.12 and the Derf1_ab_clr [18] was 1.32.

B4: Candidate ID 16 (antibody, V domains shown)
VH: EVHLQQSGPDLVKPGASVMISCQASGYSFTAYYINWVKQSPEKSLEWIGEINPGSGGVIYNRKFEAKATLIVDKSSNTAFMLLTRLTSEDSAIYYCARKGFYQFDYWGQGTTLTVSS
VL: SVVMTQIPKFLVVSAGDRVTITCKASQSVNDGVFWYQQKTGQSPKLVIYHTSNRYTGVSDRFTGSGYGTEFTFTISAVQSEDLAIYFCQQDYTSPLTFGGGTRLEIK
notes: IgE PCs LN
B4 was tested, and the “Raw Antigen Barcode Count” value [1] was 6, the “Normalized Barcode Count” value [4] was 0.58 and the “Antigen Score” value [7] was 0.336.

B5: ab_1 (antibody, V domains shown)
VH: EVQLVESGGGLEQPGGSLRLSCAGSGFTFSDYAMTWVRQAPGKGLEWVSSISGSGGNTYYADSVKGRFTISRDNSKNTLYLQMNSLRAEDTAVYYCAKDALTIAIRPYYYGLDVWGQGTTVTVSS
VL: DIVMTQSPLSLPVTPGEPASISCRSSQSLDYSYGYNYLDWYLQKSGQSPQLLIYLASNRASGVPDRFSGSGSGTDFTLKISRVEAEDVGFYYCMQSLSTPYTFGQGTKLEIK
B5 was tested, and the “t1/2 pH7.4” value [19] was greater than 116 min and the Kd [20] was 1.68 nM.

B6: ab_2 (antibody, V domains shown)
VH: EVQLVESGGGLEQPGGSLRLSCAGSGFTFRDYAMTWVRQAPGKGLEWVSSISGSGSNTYYADSVKGRFTISRDNSKNTLYLQMNSLRAEDTAVYYCARDRLTAAVRPYYYGLDVWGQGTTVTVSS
VL: DIVMTQSPLSLPVTPGEPASISCRSSQSLDYSSGYNYLDWYLQKSGQSPQLLIYLASNRASGVPDRFSGSGSGTDFTLKISRVEAEDVGFYYCMQSLQTPYTFGQGTKLEIK
With B6 the “t1/2 pH7.4” value [19] was 21.7 min and the Kd [20] was 3.26 nM.

B7: ab_3 (antibody, V domains shown)
VH: EVQLVESGGGLEQPGGSLRLSCAGSGFTFRDYAMTWVRQAPGKGLEWVSSISGSGGNTYYADSVKGRFTISRDNSKNTLYLQMNSLRAEDTAVYYCAKDRLSKTIRPYYYGLDVWGQGTTVTVSS
VL: DIVMTQSPLSLPVTPGEPASISCRSSQSLLYSTGYNYLDWYLQKSGQSPQLLIYLGSNRASGVPDRFSGSGSGTDFTLKISRVEAEDVGFYYCMQSLSTPYTFGQGTKLEIK
With B7 the “t1/2 pH7.4” value [19] was 10.6 min and the Kd [20] was 14.2 nM.
